# Measurements published in patent US20230355720A1, “PHARMACEUTICAL COMPOSITION FOR PREVENTING OR TREATING BONE DISEASES, COMPRISING TRIPLE AGONIST OR CONJUGATE THEREOF HAVING ACTIVITY WITH RESPECT TO ALL OF GLUCAGON, GLP-1 AND GLP RECEPTORS” (HANMI PHARM. CO., LTD., priority 2020, published 2023).
# Bridge positions count the residues as written; N and C are the ends. Square brackets hold non-standard residues; d marks the D form. Ends that are not written are not given here. * marks the point of attachment. Acetyl(2-(4-imidazolyl)) = O=C(Cc1c[nH]cn1)*; Aib = CC(C)(N)C(=O)O
# T1: human GIP receptor (human, UniProt P48546 22-466)
# T1 sequence (looked up): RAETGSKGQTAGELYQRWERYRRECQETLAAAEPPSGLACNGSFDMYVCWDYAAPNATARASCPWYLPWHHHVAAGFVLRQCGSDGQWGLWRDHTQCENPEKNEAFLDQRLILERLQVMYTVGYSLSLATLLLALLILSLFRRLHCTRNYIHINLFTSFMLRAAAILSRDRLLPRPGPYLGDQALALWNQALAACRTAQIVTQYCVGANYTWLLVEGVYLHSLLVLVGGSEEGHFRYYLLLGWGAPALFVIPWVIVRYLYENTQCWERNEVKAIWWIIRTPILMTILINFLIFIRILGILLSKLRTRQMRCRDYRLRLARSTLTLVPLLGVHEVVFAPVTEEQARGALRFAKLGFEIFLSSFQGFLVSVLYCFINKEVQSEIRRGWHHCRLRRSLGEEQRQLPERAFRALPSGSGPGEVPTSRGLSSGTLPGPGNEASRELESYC
# Key:
# Test in all cases: cell-based or functional assay
# human GIP receptor = molecular target: T1, human GIP receptor
# human GLP-1 receptor = human GLP-1 receptor (human, UniProt P43220 24-463)
# human GCG receptor = human GCG receptor (human, UniProt P47871 26-477)
# Chain of human GCG receptor (P47871 26-477): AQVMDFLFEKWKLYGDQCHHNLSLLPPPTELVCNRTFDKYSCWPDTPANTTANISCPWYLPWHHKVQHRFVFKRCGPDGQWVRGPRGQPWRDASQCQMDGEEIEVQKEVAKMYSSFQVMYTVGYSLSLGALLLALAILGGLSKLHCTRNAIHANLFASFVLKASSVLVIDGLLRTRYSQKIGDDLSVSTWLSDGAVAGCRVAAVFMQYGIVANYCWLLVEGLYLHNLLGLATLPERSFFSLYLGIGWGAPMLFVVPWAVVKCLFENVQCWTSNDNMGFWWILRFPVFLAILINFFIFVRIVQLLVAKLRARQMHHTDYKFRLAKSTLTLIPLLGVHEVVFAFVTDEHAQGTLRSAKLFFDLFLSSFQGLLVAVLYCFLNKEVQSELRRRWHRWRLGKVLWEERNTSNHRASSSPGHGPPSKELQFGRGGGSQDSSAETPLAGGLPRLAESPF
Binder,"In vitro activity (%) compared with native peptide, vs GIP (human GIP receptor) [%]","In vitro activity (%) compared with native peptide, vs GLP-1 (human GLP-1 receptor) [%]","In vitro activity (%) compared with native peptide, vs Glucagon (human GCG receptor) [%]"
H[Aib]QGTFTSDKSKYLDECAAQDFVQWLLDGGPSSGAPPPS (not fully specified) [triple agonist of SEQ ID NO: 41],< 0.1,34.3,< 0.1
H[Aib]QGTFTSDKSKYLDERACQDFVQWLLDGGPSSGAPPPS (not fully specified) [triple agonist of SEQ ID NO: 40],< 0.1,75.2,< 0.1
[Acetyl(2-(4-imidazolyl))][Aib]QGTFTSDKSSYLDERAAQDFVQWLLDGGPSSGAPPPSS (not fully specified) [triple agonist of SEQ ID NO: 38],,2.3,
H[Aib]QGTFTSDYSKYLDEKRQKEFVNWLLAQKC (bridge 16-20) [triple agonist of SEQ ID NO: 34],0.6,19.1,0.92
H[Aib]EGTFTSDYSIAMDEIHQKDFVDWLLAEC (bridge 16-20) [triple agonist of SEQ ID NO: 54],0.1,30.6,1.4
H[Aib]QGTFTSDYSKYLDEKRAKEFVQWLLDHHPSSGQPPPSC (bridge 16-20) [triple agonist of SEQ ID NO: 50],2.7,67.4,50.5
H[Aib]QGTFTSDYSKYLDECRQKEFVQWLLNGGPSSGAPPPSG (bridge 16-20) [triple agonist of SEQ ID NO: 37],2.2,236,6.21
H[Aib]QGTFTSDYSIAMDEIHQKDFVNWLLAQC (bridge 16-20; not fully specified) [triple agonist of SEQ ID NO: 55],2.4,27.1,0.7
H[Aib]QGTFTSDYSIAMDEIHQKDFVNWLLNTC (bridge 16-20) [triple agonist of SEQ ID NO: 57],0.3,11.7,< 0.1
HGQGTFTSDCSKQLDGQAAQEFVAWLLAGGPSSGAPPPS [triple agonist of SEQ ID NO: 44],< 0.1,1.3,< 0.1
HGQGTFTSDCSKYLDEQHAQEFVAWLLAGGPSSGAPPPS [triple agonist of SEQ ID NO: 46],< 0.1,1.4,< 0.1
HGQGTFTSDCSKYLDGQRAQEFVAWLLAGGPSSGAPPPS [triple agonist of SEQ ID NO: 47],< 0.1,2.4,< 0.1
HGQGTFTSDCSKYMDGQAAQDFVAWLLAGGPSSGAPPPS [triple agonist of SEQ ID NO: 45],< 0.1,6.6,< 0.1
HGQGTFTSDCSKYLDGQRAQDFVNWLLAGGPSSGAPPPS [triple agonist of SEQ ID NO: 48],< 0.1,1.5,< 0.1
[Acetyl(2-(4-imidazolyl))][Aib]QGTFTSDYSICMDEIHQKDFVNWLLNTK (bridge 16-20) [triple agonist of SEQ ID NO: 49],3.3,29.8,< 0.1
H[Aib]QGTFTSDYSKYLDEKRQKEFVQWLLNTKC (bridge 16-20) [triple agonist of SEQ ID NO: 58],0.2,39.1,2.6
H[Aib]QGTFTSDYSKYLCEKRQKEFVQWLLNGGPSSGAPPPSG (bridge 16-20) [triple agonist of SEQ ID NO: 36],0.2,37.4,0.39
H[Aib]QGTFTSDVSSYLDGQAAKEFIAWLVKGC [triple agonist of SEQ ID NO: 1],< 0.1,3.2,< 0.1
[Acetyl(2-(4-imidazolyl))][Aib]QGTFTSDYSIAMDEKHCKDFVNWLLNTK (bridge 16-20; not fully specified) [triple agonist of SEQ ID NO: 60],8.2,106,< 0.1
[Acetyl(2-(4-imidazolyl))][Aib]QGTFTSDYSICMDEKHQKDFVNWLLNTK (bridge 16-20; not fully specified) [triple agonist of SEQ ID NO: 59],4,40.3,< 0.1
H[Aib]QGTFTSDVSSYLDGQAAKEFVAWLLKGC [triple agonist of SEQ ID NO: 6],< 0.1,17,< 0.1
H[Aib]QGTFTSDYSKYLDGQHAQCFVAWLLAGGGPSSGAPPPS [triple agonist of SEQ ID NO: 39],< 0.1,13.9,0.53
Y[Aib]QGTFTSDYSKYLDEKRAKEFVQWLLDHHCSSGQPPPS (bridge 16-20) [triple agonist of SEQ ID NO: 43],3.7,12.6,88.4
H[Aib]QGTFTSDVSSYLLGQQQKEFIAWLVKGGGPSSGAPPPSC [triple agonist of SEQ ID NO: 5],< 0.1,42.1,< 0.1
H[Aib]QGTFTSDVSSYLLGQQQKEFIAWLVKGC [triple agonist of SEQ ID NO: 4],< 0.1,8.5,< 0.1
H[Aib]EGTFTSDYSIAMDEIHQKDFVNWLLAQC (bridge 16-20; not fully specified) [triple agonist of SEQ ID NO: 53],1.3,161,8.4
Y[Aib]QGTFTSDYSKYLDEKRAKEFVQWLLDHHPSSGQPPPSC (bridge 16-20) [triple agonist of SEQ ID NO: 42],7.8,33.9,206
